Measurements as given in publication PMC9239148 (2022).

B1: Active recombinant TMPRSS2 (transmembrane serine protease 2) (enzyme)
chain: not shown
B2: Tissue plasminogen activator (enzyme)
chain: SYQVICRDEKTQMIYQQHQSWLRPVLRSNRVEYCWCNSGRAQCHSVPVKSCSEPRCFNGGTCQQALYFSDFVCQCPEGFAGKCCEIDTRATCYEDQGISYRGTWSTAESGAECTNWNSSALAQKPYSGRRPDAIRLGLGNHNYCRNPDRDSKPWCYVFKAGKYSSEFCSTPACSEGNSDCYFGNGSAYRGTHSLTESGASCLPWNSMILIGKVYTAQNPSAQALGLGKHNYCRNPDGDAKPWCHVLKNRRLTWEYCDVPSCSTCGLRQYSQPQFRIKGGLFADIASHPWQAAIFAKHRRSPGERFLCGGILISSCWILSAAHCFQERFPPHHLTVILGRTYRVVPGEEEQKFEVEKYIVHKEFDDDTYDNDIALLQLKSDSSRCAQESSVVRTVCLPPADLQLPDWTECELSGYGKHEALSPFYSERLKEAHVRLYPSSRCTSQHLLNRTVTDNMLCAGDTRSGGPQANLHDACQGDSGGPLVCLNDGRMTLVGIISWGLGCGQKDVPGVYTKVTNYLDWIRDNMRP

Assays:
Assay in all cases: SPR
[1] = molecular target: T1, Recombinant SERPINA1 protein (alpha-1 antitrypsin) (human, UniProt P01009 25-418)
T1 sequence (P01009 25-418): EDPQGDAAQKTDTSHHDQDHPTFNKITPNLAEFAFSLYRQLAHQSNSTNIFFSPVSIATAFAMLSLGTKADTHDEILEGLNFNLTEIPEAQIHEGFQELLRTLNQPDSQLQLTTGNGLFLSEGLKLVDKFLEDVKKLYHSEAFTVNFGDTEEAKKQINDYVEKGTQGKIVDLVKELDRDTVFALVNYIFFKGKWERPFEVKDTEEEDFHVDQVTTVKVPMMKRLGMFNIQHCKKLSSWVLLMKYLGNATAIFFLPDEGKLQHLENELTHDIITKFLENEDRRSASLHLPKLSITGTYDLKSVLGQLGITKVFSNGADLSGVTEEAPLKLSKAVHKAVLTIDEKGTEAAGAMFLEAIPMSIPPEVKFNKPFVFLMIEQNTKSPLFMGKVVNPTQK

[2] = molecular target: T2, Recombinant SERPINE1 protein (plasminogen activator inhibitor 1) (human, UniProt P05121 24-402)
T2 sequence (P05121 24-402): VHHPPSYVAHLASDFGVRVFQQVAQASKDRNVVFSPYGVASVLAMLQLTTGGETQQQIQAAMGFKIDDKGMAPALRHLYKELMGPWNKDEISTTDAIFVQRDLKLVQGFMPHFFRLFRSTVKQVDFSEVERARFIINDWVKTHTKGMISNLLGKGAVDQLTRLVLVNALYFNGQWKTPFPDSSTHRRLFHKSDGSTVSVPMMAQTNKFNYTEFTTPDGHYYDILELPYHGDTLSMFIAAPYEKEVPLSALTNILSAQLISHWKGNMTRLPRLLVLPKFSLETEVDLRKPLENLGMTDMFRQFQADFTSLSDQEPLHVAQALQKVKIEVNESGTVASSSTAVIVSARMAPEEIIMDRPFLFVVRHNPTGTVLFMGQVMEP

[3] = molecular target: T3, Recombinant SERPINC1 protein (antithrombin III) (human, UniProt P01008 33-464)
T3 sequence (P01008 33-464): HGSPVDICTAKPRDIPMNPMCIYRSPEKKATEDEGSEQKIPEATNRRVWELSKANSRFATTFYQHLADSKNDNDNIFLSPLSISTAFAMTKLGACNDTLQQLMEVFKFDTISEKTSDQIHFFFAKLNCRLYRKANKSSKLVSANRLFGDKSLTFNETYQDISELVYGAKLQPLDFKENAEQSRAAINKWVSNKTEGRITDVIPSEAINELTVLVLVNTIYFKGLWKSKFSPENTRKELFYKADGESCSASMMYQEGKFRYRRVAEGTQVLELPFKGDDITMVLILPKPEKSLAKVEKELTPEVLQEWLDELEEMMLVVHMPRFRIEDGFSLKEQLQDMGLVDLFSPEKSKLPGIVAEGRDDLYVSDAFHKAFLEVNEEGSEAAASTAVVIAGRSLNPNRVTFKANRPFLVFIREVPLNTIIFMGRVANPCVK

[4] = molecular target: T1, Recombinant SERPINA1 protein (alpha-1 …); remark: listed apart in the source
[5] = molecular target: T2, Recombinant SERPINE1 protein …; remark: listed apart in the source
[6] = molecular target: T3, Recombinant SERPINC1 protein …; remark: listed apart in the source

Row | Binder | Kd [1] | Kd [2] | Kd [3] | koff [4] | koff [5] | koff [6]
1 | B1 | 20.8 nM | 9.5 nM | 17.9 nM | 0.00377 s⁻¹ | 0.00253 s⁻¹ | 0.00324 s⁻¹
2 | B2 | – | 246 nM | – | – | 0.00787 s⁻¹ | –
